Results as given in paper PMC11081498.

Assays:
[1] = target: Giardia lamblia virus strain GLV-CAT capsid protein (Giardia lamblia virus (strain GLV-CAT)); test: cryo-EM structure; single-particle analysis of purified virions plunge-frozen on holey carbon grids; 300-kV Titan Krios; icosahedral symmetry imposed; atomic models of CP-A and CP-B built into the maps
[2] = target: Giardia lamblia virus strain GLV-HP capsid protein (Giardia lamblia virus (strain GLV-HP)); test: as above

Substance	stoichiometry N (CP dimers (CP-A and CP-B) in the capsid) [1]	stoichiometry N (CP dimers (CP-A and CP-B) in the capsid) [2]
Giardia lamblia virus strain GLV-CAT capsid protein (natural protein)	60	
Giardia lamblia virus strain GLV-HP capsid protein (natural protein)		60
